Consider 1 molecule from US20170360778, “Methods for Treating a Cytomegalovirus Infection” (The J. David Gladstone Institutes, published 2017).

The data set addresses T1, IE2 (IE86) MBP fusion (Human cytomegalovirus, UniProt P19893 P19893:1-580).
T1 sequence: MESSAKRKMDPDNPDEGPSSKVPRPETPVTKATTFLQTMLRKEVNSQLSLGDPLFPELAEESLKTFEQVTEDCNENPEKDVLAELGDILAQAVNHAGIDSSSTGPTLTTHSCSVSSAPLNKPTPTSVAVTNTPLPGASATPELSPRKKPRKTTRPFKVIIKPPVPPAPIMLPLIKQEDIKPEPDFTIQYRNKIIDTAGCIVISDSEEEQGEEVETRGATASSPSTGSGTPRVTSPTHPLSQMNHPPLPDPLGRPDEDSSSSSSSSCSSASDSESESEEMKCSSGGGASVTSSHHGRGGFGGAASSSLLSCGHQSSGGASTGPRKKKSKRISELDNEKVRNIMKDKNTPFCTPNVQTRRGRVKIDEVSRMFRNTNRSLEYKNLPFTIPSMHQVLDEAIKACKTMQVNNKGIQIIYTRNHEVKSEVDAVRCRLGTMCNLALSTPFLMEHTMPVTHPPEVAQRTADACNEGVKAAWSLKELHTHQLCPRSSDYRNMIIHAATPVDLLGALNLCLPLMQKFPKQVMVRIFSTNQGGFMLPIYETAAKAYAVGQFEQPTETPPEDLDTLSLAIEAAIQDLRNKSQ
Nature of the data set: EMSA; IE2-CRS EMSA in presence of various amounts of Hoechst 33258 (BB33258); exact probe sequence not stated, CRS core given. As to conditions: tags: MBP fusion, expressed in E. coli BL21, amylose column.

B1: hCMV CRS (IE2 binding site) (dsDNA)
DNA 1: TCGTTTAGTGAACCG
DNA 2: CGGTTCACTAAACGA
As to B1, the binding result is listed as “binds”.
